Source: US20240093191A1, “COMPOSITIONS AND METHODS FOR TREATING DISEASE ASSOCIATED WITH DUX4 OVEREXPRESSION” (RESEARCH INSTITUTE AT NATIONWIDE CHILDREN'S HOSPITAL, priority 2021, published 2024)

B1: H1.mir-675: commercially available H1 promoter mir-675 expression plasmid (SBI Biosciences) (nucleic acid)
DNA: GAACGCTGACGTCATCAACCCGCTCCAAGGAATCGCGGGCCCAGTGTCACTAGGCGGGAACACCCAGCGCGCGTGCGCCCTGGCAGGAAGATGGCTGTGAGGGACAGGGGAGTGGCGCCCTGCAATATTTGCATGTCGCTATGTGTTCTGGGAAATCACCATAAACGTGAAATGTCTTTGGATTTGGGAATCTTATAAGTTCTGTATGAGACCACCCCCCAGGGTCTGGTGCGGAGAGGGCCCACAGTGGACTTGGTGACGCTGTATGCCCTCACCGCTCAGCCCCTGGGGAATTCTTCGATTCTGCTTTTTT
B2: U6.mir-675: U6 promoter-driven mir-675 expression plasmid with 40 nt 5' and 47 nt 3' flanking sequences (nucleic acid)
DNA: GACGCCGCCATCTCTAGGCCCGCGCCGGCCCCCTCGCACAGACTTGTGGGAGAAGCTCGGCTACTCCCCTGCCCCGGTTAATTTGCATATAATATTTCCTAGTAACTATAGAGGCTTAATGTGCGATAAAAGACAGATAATCTGTTCTTTTTAATACTAGCTACATTTTACATGATAGGCTTGGATTTCTATAAGAGATACAAATACTAAATTATTATTTTAAAAAACAGCACAAAAGGAAACTCACCCTAACTGTAAAGTAATTGTGTGTTTTGAGACTATAAATATCCCTTGGAGAAAAGCCTTGTTTGCGTTTAGTGAACCGTCAGATGGTACCGTTTAAACTCGAGCCCAGGGTCTGGTGCGGAGAGGGCCCACAGTGGACTTGGTGACGCTGTATGCCCTCACCGCTCAGCCCCTGGGACTAGAGCGGCCGCCACAGCGGGGAGATCCAGACATGATAAGATACATTTTTT

Columns and labels:
DUX4 mRNA = experiment: QPCR (SYBR green) of DUX4 mRNA in co-transfected HEK293 cells; format: cell-based, human; settings: 3 to 1 ratio with DUX4 construct, normalized to egfp, relative to milacZ
Experimental: H1.mir-675 construct was transfected in a 3 to 1 ratio with DUX4 construct in HEK293 cells, and collected RNA extracts 24 and 48h after transfection. Total RNA was prepared using the miRVANA isolation kit. DUX4 and egfp (used as the reference gene) mRNA levels were determined using the SYBR green master mix as described in materials and methods. All values were normalized to egfp, and were reported relative to milacZ treated samples. At 24 and 48h after transfection, DUX4 levels decreased by an average of 37±2% (P<0.0001, ANOVA, N=3) and 51±2% (P<0.0001, ANOVA, N=3), respectively. Results were reported as the average relative DUX4 expression±SEM of three replicates. […] When compared to the milacZ sample, mir-675-5p overexpressed levels were ˜2000-fold higher (P<0.0001, ANOVA, N=3). Results were reported as the average relative mir-675-5p expression (2^−ΔCq)±SEM of three replicates.

[1] = system: DUX4-FL (DUX4 ORF + 3'UTR, RenLuc-DUX4-FL); experiment: Dual-luciferase assay, RenLuc-DUX4-FL reporter co-transfected with miRNA plasmids in HEK293 cells; format: cell-based, human
Description: FIG. 1A. Dual-luciferase assay to test the ability of U6.mir-675 to target DUX4. Shown here is the mir-675 expression plasmid used in this study. In this construct, the RNA polymerase III U6 promoter (U6p) controls the expression of mir-675. A terminal signal formed of a stretch of six T nucleotides allows the termination of transcription. On the right, the secondary structure of the mir-675 along with its 5′ and 3′ end flanking sequences (Boxed) is shown. At the 5′ end, the flanking sequence is of 40 nucleotides long and at the 3′ end, the flanking sequence is of 47 nucleotides long starting from the nucleotide at position 114. U6.mir-675 was tested to target DUX4 using the dual-luciferase assay. To do this, DUX4 was cloned in the RenLuc-DUX4-FL expression plasmid (FIG. 1A), i.e., DUX4-FL (DUX4 ORF without V5 tag+3′UTR) was PCR amplified using CMV.DUX4-FLΔV5 as template with the following primers: forward: 5′ […] 3′ (SEQ ID NO: 125), reverse: 5′ […] 3′ (SEQ ID NO: 126). The PCR product was then cloned into a previously designed RenLuc SD5 mutant plasmid using XhoI/SpeI restriction sites and the RenLuc.SD5 mutant-DUX4 3′UTR plasmid backbone. The Renilla luciferase gene has a splicing donor mutation (*SID5) that prevents the alternative splicing of the DUX4-FL mRNA (Ansseau et al. (2015) PLoS One, 10, e0118813). The dual-luciferase assay was performed by co-transfecting the RenLuc-DUX4-FL and U6.mir-675 expression plasmids into the human embryonic kidney HEK293 cells. 48 hours after transfection, both the Renilla and Firefly luciferase activities were measured. The latter was used to normalize for Renilla luciferase activity. The non-targeting RenLuc control backbone plasmid (RenLuc) was co-transfected with U6.mir-675 and the RenLuc-DUX4-FL co-transfected with U6.milacZ as negative control reactions. In the other reactions, mir-675 reduced the relative Renilla luciferase activity by 24±3% (P<0.0001, ANOVA, N=3), 28±2% (P<0.0001, ANOVA, N=3) and 33±3% (P<0.0001, ANOVA, N=3) at a molarity ratio U6.mir-675: RenLuc-DUX4-FL (n:n) of 10 to 1, 20 to 1 and 40 to 1, respectively. All readings were normalized to the U6.milacZ (negative control). Six replicate data were averaged per experiment and individual experiments were performed in triplicate (N=3). Results were reported as the average relative Renilla luciferase activity±SEM for all combined experiments. […] A representative western blot gel and the quantification results of three independent western blot replicates (N=3) performed on 15 μg of total protein extracts collected from HEK293 cells 24 hours after co-transfection with the AAV.CMV.DUX4-FL and the U6.mir-675 or the human long non-coding H19 expression plasmid (CMV.H19) is shown here. […]

| Molecule | decrease of DUX4 mRNA levels (DUX4 mRNA; 24 h) [%] | decrease of DUX4 mRNA levels (DUX4 mRNA; 48 h) [%] | reduction of relative Renilla luciferase activity ([1]; miRNA:RenLuc-DUX4-FL molar ratio 10 to 1, 48 h, normalized to U6.milacZ) [%] | reduction of relative Renilla luciferase activity ([1]; miRNA:RenLuc-DUX4-FL molar ratio 20 to 1, 48 h, normalized to U6.milacZ) [%] | reduction of relative Renilla luciferase activity ([1]; miRNA:RenLuc-DUX4-FL molar ratio 40 to 1, normalized to milacZ) [%] |
| --- | --- | --- | --- | --- | --- |
| B1 | 37±2 | 51±2 |  |  |  |
| B2 |  |  | 24±3 | 28±2 | 33±3 |
